Measurements from patent publication US20040151731A1.

Molecular target: HLA-A, B, C on presenting PBL
Assay: cell-based or functional assay

Work on “W6/32 (anti-HLA-A, B, C) monoclonal antibody” yielded a reduction in γIFN secretion of Long Term AAA cells with PBL presenting cells and collagen of 74%.
